This note sets out measurements from patent US20210396758A1 (AMLO BIOSCIENCES, published 2021).

Ends that are not written are not given here.

Experiment [1] has as its target T1, N1-CD33-His6 (the ectodomain of human CD33 fused to the N1 domain of the g3p filamentous phage M13) (filamentous phage M13; human, UniProt P20138 18-259).
T1 construct: extracellular domain; not shown: N1 domain of g3p of filamentous phage M13
Nature of the experiment: QC ELISA of the chimeric human/mouse IgG1 antibody on immobilized control protein; signal over background.

The target in experiment [2] is T1, N1-CD33-His6 (the ectodomain of human …). Briefly: QC ELISA, purified Fab on immobilized control protein; signal (x-fold) over background. In general terms: ELISA stands for enzyme-linked immunosorbent assay.
The target in experiment [3] is T2, human Ambra-1 (human, UniProt Q9C0C7 1-1298).
T2 construct: the protein stood in tissue sections (immunohistochemistry)
T2 sequence: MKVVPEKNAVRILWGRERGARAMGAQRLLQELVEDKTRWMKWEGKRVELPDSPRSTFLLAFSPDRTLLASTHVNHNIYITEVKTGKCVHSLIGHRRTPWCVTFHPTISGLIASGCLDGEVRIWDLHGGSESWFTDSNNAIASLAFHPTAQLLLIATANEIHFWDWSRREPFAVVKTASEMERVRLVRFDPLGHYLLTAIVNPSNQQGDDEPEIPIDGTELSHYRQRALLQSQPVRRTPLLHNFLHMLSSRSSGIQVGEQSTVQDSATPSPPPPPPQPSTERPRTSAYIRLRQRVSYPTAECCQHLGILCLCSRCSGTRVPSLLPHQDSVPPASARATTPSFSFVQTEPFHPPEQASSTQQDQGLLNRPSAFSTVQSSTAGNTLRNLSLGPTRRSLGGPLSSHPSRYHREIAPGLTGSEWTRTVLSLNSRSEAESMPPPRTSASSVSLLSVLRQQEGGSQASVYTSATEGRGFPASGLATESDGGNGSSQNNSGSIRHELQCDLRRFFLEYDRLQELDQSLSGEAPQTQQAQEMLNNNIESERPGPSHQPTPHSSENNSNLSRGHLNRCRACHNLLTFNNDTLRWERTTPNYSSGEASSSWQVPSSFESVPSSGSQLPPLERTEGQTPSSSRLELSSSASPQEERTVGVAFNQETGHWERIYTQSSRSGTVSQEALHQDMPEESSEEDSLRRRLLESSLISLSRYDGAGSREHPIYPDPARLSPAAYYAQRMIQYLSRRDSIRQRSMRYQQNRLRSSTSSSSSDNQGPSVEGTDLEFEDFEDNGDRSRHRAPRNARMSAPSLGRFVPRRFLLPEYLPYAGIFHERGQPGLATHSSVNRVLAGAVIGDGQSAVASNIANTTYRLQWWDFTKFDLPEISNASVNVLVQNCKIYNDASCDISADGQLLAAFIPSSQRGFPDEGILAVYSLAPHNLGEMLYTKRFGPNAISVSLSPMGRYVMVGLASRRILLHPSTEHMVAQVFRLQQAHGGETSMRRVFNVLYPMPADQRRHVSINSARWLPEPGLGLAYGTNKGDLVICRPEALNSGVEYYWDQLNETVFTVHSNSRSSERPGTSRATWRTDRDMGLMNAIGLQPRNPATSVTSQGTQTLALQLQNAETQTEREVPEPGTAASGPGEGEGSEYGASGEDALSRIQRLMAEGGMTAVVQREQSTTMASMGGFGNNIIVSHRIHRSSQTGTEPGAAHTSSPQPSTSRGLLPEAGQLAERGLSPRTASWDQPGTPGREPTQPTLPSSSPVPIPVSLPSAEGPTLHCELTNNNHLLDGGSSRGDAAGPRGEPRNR
Briefly: automated immunohistochemistry (Ventana Benchmark XT), chimeric mouse IgG1 format.

Experiment [4] addresses T1, N1-CD33-His6 (the ectodomain of human …). Nature of the experiment: QC ELISA of the chimeric human/mouse IgG1 antibody on immobilized control protein; signal over background. This is another data set of the same source.
Experiment [5] has as its target T3, Ambra-1 peptide (synthesized peptide to which anti-Ambra-1 antibodies were raised) (human, not fully specified).
T3 construct: Tested in ELISA in native and denatured form; also called Ambra-1 antigen
T3 peptide: CGGSSRGDAAGPRGEPRNR
Nature of the experiment: QC ELISA of the chimeric human/mouse IgG1 antibody on immobilized Ambra-1 peptide conjugates Amb1-TRF and Amb1-BSA; signal over background.

T1 sequence (P20138 18-259, tags left off): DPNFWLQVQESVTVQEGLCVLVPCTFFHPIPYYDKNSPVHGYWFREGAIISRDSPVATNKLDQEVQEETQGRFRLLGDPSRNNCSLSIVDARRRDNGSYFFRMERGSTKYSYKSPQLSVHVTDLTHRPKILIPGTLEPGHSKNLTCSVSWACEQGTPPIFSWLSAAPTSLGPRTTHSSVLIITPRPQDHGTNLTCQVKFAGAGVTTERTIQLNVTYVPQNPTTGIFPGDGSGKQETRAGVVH

B1: AbD33047 full length chimeric antibody against human Loricrin with an IgG1 mouse Fc region (antibody, V domains shown)
VH: QVQLVQSGAEVKKPGASVKVSCKASGYTFNDYYIHWVRQAPGQGLEWMGVISPNSGKTNYAQKFQGRVTMTRDTSISTAYMELSRLRSEDTAVYYCARDLYPDSSAFDIWGQGTLVTVSS
VL: DIELTQPPSVSVSPGQTASITCSGDNLGDKYAHWYQQKPGQAPVLVIYDDNERPSGIPERFSGSNSGNTATLTISGTQAEDEADYYCQSYDSGNRVFGGGTKLTVLG
notes: also called recombinant monoclonal antibody AbD33047; HuCAL antibody AbD33047
Consider B1, for which the binding result in experiment [1] was “no binding”.

B2: HuCAL recombinant monoclonal antibody fragment against human Ambra-1, AbD33473.1, bivalent Fab (Fab-A-FH) (Fab)
heavy: EVQLVQSGAEVKKPGESLKISCKGSGYSFSSYWIHWVRQMPGKGLEWMGTIFPSRSYTTYSPSFQGQVTISADKSISTAYLQWSSLKASDTAMYYCARDTPSTALKSPFDYWGQGTLVTVSSASTKGPSVFPLAPSSKSTSGGTAALGCLVKDYFPEPVTVSWNSGALTSGVHTFPAVLQSSGLYSLSSVVTVPSSSLGTQTYICNVNHKPSNTKVDKKVEPKSRTPEMPVLENRAAQGDITAPGGARRLTGDQTAALRDSLSDKPAKNIILLIGDGMGDSEITAARNYAEGAGGFFKGIDALPLTGQYTHYALNKKTGKPDYVTDSAASATAWSTGVKTYNGALGVDIHEKDHPTILEMAKAAGLATGNVSTAELQDATPAALVAHVTSRKCYGPSATSEKCPGNALEKGGKGSITEQLLNARADVTLGGGAKTFAETATAGEWQGKTLREQAQARGYQLVSDAASLNSVTEANQQKPLLGLFADGNMPVRWLGPKATYHGNIDKPAVTCTPNPQRNDSVPTLAQMTDKAIELLSKNEKGFFLQVEGASIDKQDHAANPCGQIGETVDLDEAVQRALEFAKKEGNTLVIVTADHAHASQIVAPDTKAPGLTQALNTKDGAVMVMSYGNSEEDSQEHTGSQLRIAAYGPHAANVVGLTDQTDLFYTMKAALGLKDYKDDDDKHHHHHH
light: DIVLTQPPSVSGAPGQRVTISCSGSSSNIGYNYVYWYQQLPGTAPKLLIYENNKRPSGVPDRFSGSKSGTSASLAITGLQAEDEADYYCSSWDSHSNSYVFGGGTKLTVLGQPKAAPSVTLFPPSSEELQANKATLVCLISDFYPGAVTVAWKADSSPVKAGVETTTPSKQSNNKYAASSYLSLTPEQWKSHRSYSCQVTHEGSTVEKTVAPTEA
notes: domain: alkaline phosphatase dimerization domain
In the case of B2, in experiment [2], the binding result is recorded as “no binding”.

B3: AbD33473 full length chimeric antibody against human Ambra-1 with an IgG1 mouse Fc region (antibody, V domains shown)
VH: EVQLVQSGAEVKKPGESLKISCKGSGYSFSSYWIHWVRQMPGKGLEWMGTIFPSRSYTTYSPSFQGQVTISADKSISTAYLQWSSLKASDTAMYYCARDTPSTALKSPFDYWGQGTLVTVSS
VL: DIVLTQPPSVSGAPGQRVTISCSGSSSNIGYNYVYWYQQLPGTAPKLLIYENNKRPSGVPDRFSGSKSGTSASLAITGLQAEDEADYYCSSWDSHSNSYVFGGGTKLTVLG
notes: also called recombinant monoclonal antibody AbD33473; HuCAL antibody AbD33473
On to B3, for which the figures for the binding result in experiment [3], in experiment [4] and in experiment [5] were “binds”, “no binding” and “binds”, respectively.
